Assay results as given in the supplement of paper PMC10567573.
± gives the standard deviation.

Test: protein stability index of a GFP-peptide fusion (GPS, HEK-293T) (PSI 1-6); higher = more stable
Conditions: c terminus: a fixed tail appended
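Also: 24-mer peptide tiles fused after GFP, lentivirally expressed, FACS-sorted into six equal bins by GFP/DsRed ratio, decoded by Illumina sequencing, PSI is the read-weighted mean bin number.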

Row | Sequence | protein stability index (treatment: DMSO) | protein stability index (treatment: MLN4924 1 uM, 8 h)
1 | LKLLNVLEEYITDEQKEEEEEEGE [FAM9B] | 4.94 ± 0.18 | 4.93 ± 0.29
2 | FLRQLPFRGDDGIFDDNFIEERKQ [SNX3] | 3.55 ± 0.27 | 3.82 ± 0.35
3 | SCLRRRRHPPKVGDDSDLSEGFES [SMG5] | 5.02 ± 0.32 | 4.93 ± 0.058
4 | EASGYVDRDMFFKICESLNVPVDD [EFHC1] | 3.95 ± 0.29 | 4.17 ± 0.44
5 | QKTLQVKCQHYKKKRTEQEETIAS [CEP70] | 4.33 ± 0.34 | 4.64 ± 0.2
6 | SEVEELNMSLTALREKLLEAEQSL [TEKT4] | 3.52 ± 0.35 | 3.87 ± 0.2
7 | DSNMPHFQTLQAIVSHFQKLFDVP [CEP70] | 2.38 ± 0.1 | 2.47 ± 0.22
8 | AYQHSGHLESKDINQEELRALEEV [C10orf62] | 5.41 ± 0.29 | 5.4 ± 0.17
9 | VEAVKNELRRQAPPPPPPSRGGPP [WASL] | 4.91 ± 0.29 | 4.92 ± 0.078
10 | AIGGTYLGPAFRGLKGRTLYPAVS [SPSB2] | 2.51 ± 0.16 | 2.69 ± 0.19
11 | ELESLSAIEAELEKVAHQLQALRR [CHGA] | 4.74 ± 0.22 | 4.97 ± 0.4
12 | AQTLHHKSCYNGRFQLLYVACGMV [DNAAF3] | 2.94 ± 0.63 | 2.39 ± 0.72
13 | QAVCGKCSSKRSSYPVMGFEFQVR [WDFY1] | 2.16 ± 0.23 | 2.34 ± 0.44
14 | GGYLTELEDGFYLTAFICFLVFIL [MFSD9] | 1.98 ± 0.22 | 2.14 ± 0.34
15 | FFFAVLHAIYSLSYPMRRSYRYKL [STEAP1] | 2.31 ± 0.4 | 2.43 ± 0.53
16 | IIKQLKDVFERDWYSPYAKTLQPT [PLD5] | 1.98 ± 0.59 | 1.97 ± 0.39
17 | ITTKIFWGGKAETERGLSRKHIIE [KCNAB2] | 2.65 ± 0.29 | 2.89 ± 0.33
18 | EGHQEGLVELPASFRELLTFFCTN [SCNN1D] | 2.73 ± 0.36 | 2.71 ± 0.34
19 | ENKVVEKAPVQNEAPALGGGEYQE [BEX5] | 5.41 ± 0.2 | 5.42 ± 0.32
20 | LGCYAVYSLLYLEHKGWYSWVLSM [CLPTM1] | 3.04 ± 0.42 | 3.27 ± 0.65
21 | SVSNSTQTSSSSSQSETSSAVSTP [DLC1] | 5.5 ± 0.1 | 5.43 ± 0.23
22 | SIVAVGFHIFRTLEVNRLMGKLLQ [PKD2L1] | 3.03 ± 0.56 | 2.55 ± 0.5
23 | DGLRLLGARARGVAMLGVFLVSAV [SOAT2] | 2.56 ± 0.53 | 2.49 ± 0.38

Row | Sequence | protein stability index (treatment: DMSO) | protein stability index (treatment: MLN4924 1 uM, 8 h)
24 | LEDELDKSVQGTGLAFIAFTEAMT [SLC6A17] | 2.73 ± 0.35 | 2.82 ± 0.51
25 | PAIIFEDANLDECIPATVRSSFAN [ALDH8A1] | 3.69 ± 0.15 | 3.72 ± 0.2
26 | LKLQTKTIKVSYARPSSASIRDAN [ELAVL3] | 2.77 ± 0.37 | 2.91 ± 0.32
27 | AADGETTATEELEKTQDDLMKHQT [EPB41L3] | 5.62 ± 0.14 | 5.64 ± 0.14
28 | RDYPSSRDTRDYAPPPRDYTYRDY [RBMX] | 2.87 ± 0.38 | 3.08 ± 0.35
29 | SGLIQTVFISSYMVLAPVFGYLGD [SPNS1] | 3.5 ± 0.3 | 3.16 ± 0.22
30 | LEETEPPLEPEDALSDAEFEGEGD [P3H4] | 5.49 ± 0.33 | 5.55 ± 0.17
31 | ARSRALRRRWCPAGIMLLALVCLL [SPACA3] | 2.23 ± 0.29 | 2.23 ± 0.19
32 | MVLSRPCHPDDQFTTSILRHWCMK [INTS3] | 2.21 ± 0.18 | 2.26 ± 0.24
33 | GEYIYTGNAKGKILVLKTDSQDLV [RBBP5] | 2.25 ± 0.24 | 2.45 ± 0.57
34 | AGEDNDDLIDNLKEAQYIRTERVE [PCMTD1] | 5.08 ± 0.18 | 5.15 ± 0.26
35 | FKMPWKPTHPSSTHALAEWASRRE [CDC25B] | 3.54 ± 0.12 | 3.63 ± 0.36
36 | RRQARREAEADKPRRLGRLKYQAP [NOP53] | 4.5 ± 0.35 | 4.6 ± 0.24
37 | EQQHYFNTPFQLSIAPPEAEGVVL [PPTC7] | 3.29 ± 0.38 | 3.56 ± 0.43
38 | IFYGSGIFNYMRLGSTKLSDKDKA [OR3A1] | 1.93 ± 0.23 | 2.12 ± 0.19
39 | LIGLISDRLRRNWPPSFLSEFRAL [SPNS1] | 2.19 ± 0.35 | 2.1 ± 0.2
40 | SVGGVPGGTGSGDGNKIFLCHCGK [ZBTB22] | 3.51 ± 0.19 | 3.73 ± 0.47
41 | PLTEQEESSPSHDRSRTVSASSTG [SRPK2] | 5.25 ± 0.28 | 5.51 ± 0.23
42 | DLGASSLHVNGESLEMDSDEDDSE [EHMT1] | 5.52 ± 0.15 | 5.62 ± 0.14
43 | PTGPRRGRDELGGGRRPGTSPALL [CDKN1A] | 4.624 ± 0.031 | 4.53 ± 0.061
44 | SPVTATLSDEDDGFVDLLDGENLK [CDC25A] | 5.4 ± 0.21 | 5.52 ± 0.13
45 | SFSSLEPDNEQLMEEVISPRQVSY [IQUB] | 4.29 ± 0.2 | 4.56 ± 0.22
46 | PWLRQDPMPLAPTRSHLWEAAQVV [TRIB3] | 2.5 ± 0.18 | 2.27 ± 0.29

Row | Sequence | protein stability index (treatment: DMSO) | protein stability index (treatment: MLN4924 1 uM, 8 h)
47 | HHPENGEEAVTVLEDLESELDDPG [ZNF24] | 5.49 ± 0.22 | 5.65 ± 0.16
48 | AAPFRFVARPVRFPREHQFFEDGD [ZNF511] | 2.85 ± 0.56 | 3.28 ± 0.62
49 | KAHETLHQSLSLASSPKGTIENIL [CDC25A] | 3.55 ± 0.5 | 3.59 ± 0.22
50 | MYPESTTGSPARLSLRQTGSPGMI [KCNAB2] | 3.7 ± 0.51 | 4.1 ± 0.4
51 | AGSCRLGSAGGLGSTLGGSSYSSC [KRT17] | 2.22 ± 0.3 | 2.27 ± 0.31
52 | FPAYTQSTASTTSTTNSTAAKPAA [ZNF207] | 4.68 ± 0.21 | 4.81 ± 0.25
53 | FSVVRRCVKLCTGHEYAAKIINTK [CAMK2B] | 2.1 ± 0.35 | 2.21 ± 0.19
54 | RLGPLSAEGTTGLAPAGQTSEESR [TNXB] | 5.3 ± 0.36 | 5.41 ± 0.2
55 | FYLALYKQMSFLEKRGCPRTALEY [TCF25] | 2.66 ± 0.4 | 2.01 ± 0.4
56 | LRNTLKSTSEDSLVKQECIKEVVE [FAN1] | 4.63 ± 0.3 | 5.01 ± 0.23
57 | SLLDELMEVQHFRTIYHMFIAGLC [SOAT2] | 2.59 ± 0.55 | 2.49 ± 0.42
58 | VRAHQDTQRRTSMGGTQQQFVEGV [CTNNB1] | 4.232 ± 0.018 | 4.24 ± 0.14
59 | DLSVEERSFVEKHRWPSNMYLKQL [RHOBTB3] | 3.01 ± 0.24 | 2.98 ± 0.18
60 | FLPDLLIFQMVIICLMCVHSLERA [SMG5] | 3.28 ± 0.47 | 2.59 ± 0.5
61 | SDLSRRSSSTMSKSEYMEIEEDMN [KCNA1] | 5.21 ± 0.33 | 5.38 ± 0.1
62 | YLLPDTCFRMQINHAIDIICGFLK [OAS1] | 2.27 ± 0.3 | 2.1 ± 0.33
63 | IEEYMVHVEEHFQLLARRMQVDKK [FUT8] | 3.06 ± 0.35 | 3.2 ± 0.27
64 | KCRMEESNAERGTAEPFPRLHNLY [CBY2] | 2.85 ± 0.27 | 2.78 ± 0.15
65 | LSLKRELSWYRGRRPRTAFTQNQI [HESX1] | 2.41 ± 0.27 | 2.66 ± 0.14
66 | CGSKACRRLFGPVDSEQLRRDCDA [CDKN1A] | 3.18 ± 0.2 | 3.23 ± 0.093
67 | EKRPLFLAPDFDRWLDESDAEMEL [HACD3] | 4.45 ± 0.11 | 4.64 ± 0.068
68 | ADAFHHQVHDDDLLSSSEEECKDR [EMD] | 5.66 ± 0.14 | 5.66 ± 0.17
69 | IWEQRSATVVMMTKLEERSRVKCD [PTPRD] | 3.29 ± 0.27 | 3.26 ± 0.41

Row | Sequence | protein stability index (treatment: DMSO) | protein stability index (treatment: MLN4924 1 uM, 8 h)
70 | VFSFDLHEPLSKERVEAFSDGVYA [TMEM175] | 3.1 ± 0.24 | 3.24 ± 0.28
71 | FIYYENMLLGVPRLRQLKVRNDSC [PKD2L1] | 2.33 ± 0.26 | 2.19 ± 0.3
72 | KAPSKLGLIISGPILQEGMDEEKL [DLC1] | 4.47 ± 0.38 | 4.54 ± 0.36
73 | ISSTSTKRTYWPDLDAKIREALVL [PLD5] | 2.38 ± 0.39 | 2.43 ± 0.49
74 | DVESGQLLQSFHGHGADVLCLDLA [GNB5] | 3.69 ± 0.28 | 3.81 ± 0.31
75 | LPACTLCAGPLEDAVTIPCGHTFC [TRIM15] | 3.818 ± 0.022 | 4.16 ± 0.35
76 | YKRQEESGAAASLNVDAAVQQWLQ [CHIT1] | 4.22 ± 0.086 | 4.1 ± 0.094
77 | VVEEILELHIHRLRYLSSIWNILD [PKD2L1] | 3.29 ± 0.65 | 3.04 ± 0.3
78 | PWNCILLTKDEAAAHLKLTSIEEG [IQUB] | 3.12 ± 0.1 | 3.44 ± 0.07
79 | FANLIKEFVIIDCRYPYEYEGGHI [CDC25A] | 2.98 ± 0.51 | 2.76 ± 1.1
80 | LKTSKMALSPSATAKRINRTSLSS [CDC14A] | 3.71 ± 0.26 | 3.54 ± 0.25
81 | HFDVLPTEFTLGDDKHYGGFTNKQ [PTPRD] | 4.48 ± 0.16 | 4.47 ± 0.25
82 | QAWFGFAGTPGYLSPEVLRKEAYG [CAMK2B] | 2.55 ± 0.22 | 2.76 ± 0.22
83 | SFRRNVGRVLLANSTQADEGKTKK [FBXO34] | 4.71 ± 0.46 | 4.85 ± 0.35
84 | YLAMLERFQDGDNILEKEVLPPIH [FEM1B] | 2.73 ± 0.19 | 2.93 ± 0.24
85 | SDNLLVILKRKWWKYILLGLADVE [SLC35F2] | 2.38 ± 0.21 | 2.31 ± 0.73
86 | DINLSVRKLLNRHNIVFGDYTWTE [TRIP13] | 2.28 ± 0.29 | 2.22 ± 0.4
87 | SGSESDHTTRSSLRGPRERAPSER [DVL3] | 5.33 ± 0.32 | 5.39 ± 0.24
88 | EDLTAKRKRMKMDKTCSKTKNKSK [FAM9B] | 4.98 ± 0.43 | 5.16 ± 0.34
89 | PEKRTQYFDPLRNEYFFDRNRPSF [KCNA4] | 2.74 ± 0.25 | 3.03 ± 0.13
